Here are results for 1 molecule from paper PMC3901395, “Multivalent interactions of the SUMO-interaction motifs in RING finger protein 4 determine the specificity for chains of the SUMO” (Biochemical Journal, 2013).

One assay addresses 2xSUMO1ΔN15 (di-SUMO1). Kind of assay: ITC binding to linear di-SUMO1 (2xSUMO1ΔN15). The settings on record: 50 mM Tris/HCl pH 7.5, 150 mM NaCl, 2 mM DTT, 5% glycerol, 25°C, averaged from two to six titrations, read-out: Dissociation constant (KD), 2xSUMO1ΔN15 (linear di-SUMO1). The source says: (§1) For expression in Escherichia coli, linear poly-SUMO chains were generated as described previously with slight modifications. After the combined PCR/ligation reaction, the 4×SUMO2-ΔN11 or 4×SUMO1-ΔN15 DNA polymers were separated from smaller polymers by agarose gel electrophoresis and individually extracted (Macherey–Nagel). These were then subjected to a second PCR with primers to create BamHI and XhoI restriction sites, a C-terminal GG motif and a stop codon. The resulting fragments coding for di-, tri- and tetra-SUMO2-ΔN11 or SUMO1-ΔN15 chains were amplified and cloned into pGEX-4T2. […] Each monomer in these chains is separated by RS replacing the natural GG motif. A similar strategy was used to design C-terminally GFP–HA2-tagged linear poly-SUMOs in the copper-inducible Ycplac22 vector for expression in S. cerevisiae. […]
(§2) The mono-SUMOs and linear poly-SUMO1 and poly-SUMO2 proteins as well as all RNF4 constructs were expressed as GST-fusion proteins from E. coli Rosetta™ 2(DE3)pLysS cells (Novagen) cultivated in LB medium with 100 μg/ml ampicillin and 30 μg/ml chloramphenicol after induction with 0.1 mM IPTG at 20°C for 12 h. […]
(§3) Binding of peptides and proteins to SUMOs was investigated by ITC using either a VP-ITC or an ITC200 (GE Healthcare). […] Protein concentrations were determined by measuring the absorption at 280 nm. […]

Assay [1] addresses 4xSUMO1ΔN15 (tetra-SUMO1). The assay can be described thus: ITC binding to linear tetra-SUMO1 (4xSUMO1ΔN15). The settings on record: 50 mM Tris/HCl pH 7.5, 150 mM NaCl, 2 mM DTT, 5% glycerol, 25°C, averaged from two to six titrations, read-out: Dissociation constant (KD), 4xSUMO1ΔN15 (tetra-SUMO1).
Excerpt: as §1, §2, §3

Another assay has as its target T1, 2xSUMO2ΔN11 (di-SUMO2) (Homo sapiens, UniProt P61956).
T1 construct: Each monomer in these chains is separated by RS replacing the natural GG motif; a C-terminal GG motif and a stop codon; GST (N, cleaved yes); made in house; host or cells: E. coli Rosetta 2(DE3)pLysS
The assay can be described thus: ITC binding to linear di-SUMO2 (2xSUMO2ΔN11). As to conditions: 50 mM Tris/HCl pH 7.5, 150 mM NaCl, 2 mM DTT, 5% glycerol, 25°C, averaged from two to six titrations, read-out: Dissociation constant (KD), 2xSUMO2ΔN11 (linear di-SUMO2).
Excerpt: as §1, §2, §3

The target in the next assay is 3xSUMO2ΔN11 (tri-SUMO2). The assay can be described thus: ITC binding to linear tri-SUMO2 (3xSUMO2ΔN11).
Excerpt: as §1, §2, §3

The target in assay [2] is 4xSUMO2ΔN11 (tetra-SUMO2). Kind of assay: ITC binding to linear tetra-SUMO2 (4xSUMO2ΔN11). The settings on record: 50 mM Tris/HCl pH 7.5, 150 mM NaCl, 2 mM DTT, 5% glycerol, 25°C, averaged from two to six titrations, read-out: Dissociation constant (KD), 4xSUMO2ΔN11 (tetra-SUMO2).
Excerpt: as §1, §2, §3

For assay [3], the target named is native 2xSUMO2 ('native' Lys^11-linked di-SUMO2 chains). Kind of assay: ITC binding to native Lys^11-linked di-SUMO2. The settings on record: 50 mM Tris/HCl pH 7.5, 150 mM NaCl, 2 mM DTT, 5% glycerol, 25°C, averaged from two to six titrations, chains produced by in vitro SUMOylation, read-out: Dissociation constant (KD), native Lys^11-linked di-SUMO2. How it is done: The mono-SUMOs and linear poly-SUMO1 and poly-SUMO2 proteins as well as all RNF4 constructs were expressed as GST-fusion proteins from E. coli Rosetta™ 2(DE3)pLysS cells (Novagen) cultivated in LB medium with 100 μg/ml ampicillin and 30 μg/ml chloramphenicol after induction with 0.1 mM IPTG at 20°C for 12 h. Cells were lysed by sonication in GST-buffer I (50 mM Tris/HCl, pH 7.5, 150 mM NaCl and 2 mM DTT) in the presence of protease inhibitors (1 μg/ml aprotinin, 1 μg/ml leupeptin, 1 μg/ml pepstatin, 200 μM pefabloc and 100 μM PMSF). For tetra-SUMOs and RNF4 variants, 1.5% sarkosyl, 0.1% Triton X-100 and 5% glycerol were added. The proteins were affinity purified using glutathione beads (Protino® Glutathione Agarose 4B, Macherey–Nagel) and eluted by thrombin cleavage. The supernatant was subjected to anion exchange chromatography and further purified by SEC (size-exclusion chromatography) into ITC buffer (50 mM Tris/HCl, pH 7.5, 150 mM NaCl, 2 mM DTT and 5% glycerol) or in crystallization buffer (20 mM Tris/HCl, pH 7.5, and 100 mM NaCl). Native SUMO2 chains were produced by in vitro SUMOylation as described recently and subsequently purified by affinity chromatography and SEC.
as §3

Assay [4] has as its system mono-SUMOs and SUMO chains. Kind of assay: ITC binding to mono-SUMOs and SUMO chains (general statements). The settings on record: mono-SUMO1 and mono-SUMO2.
Excerpt: as §1, §2, §3

T1 sequence (P61956 with tags, fused parts or gaps): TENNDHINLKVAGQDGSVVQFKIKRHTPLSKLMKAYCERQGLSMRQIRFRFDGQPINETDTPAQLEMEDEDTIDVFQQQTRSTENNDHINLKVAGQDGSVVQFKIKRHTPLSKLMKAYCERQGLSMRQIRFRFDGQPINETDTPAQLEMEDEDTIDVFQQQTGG

B1: SIM domain: construct comprising the entire N-terminal part of RNF4 upstream of the RING domain (N-terminal 1–125 amino acids) (protein)
chain: MSTRKRRGGAINSRQAQKRTREATSTPEISLEAEPIELVETAGDEIVDLTCESLEPVVVDLTHNDSVVIVDERRRPRRNARRLPQDHADSCVVSSDDEELSRDRDVYVTTHTPRNARDEGATGLR
modifications: left off: GST, end not stated, cleaved
Consider B1, for which the dissociation constant (Kd) (as a rule, the constant that tells how readily two partners part at equilibrium) on 2xSUMO1ΔN15 (di-SUMO1) came to 17 µM; in assay [1], 4.3 µM; in the assay with 2xSUMO2ΔN11 (di-SUMO2), 14 µM; at 3xSUMO2ΔN11 (tri-SUMO2) (50 mM Tris/HCl pH 7.5, 150 mM NaCl, 2 mM DTT, 5% glycerol, 25°C, averaged from two to six titrations, read-out: Dissociation constant (KD), 3xSUMO2ΔN11 (tri-SUMO2)), 19 µM; in assay [2] it was 1.6 µM; in assay [3], 11 µM. For the same molecule, the “affinity for tri-SUMO compared with di-SUMO” value in the assay on 3xSUMO2ΔN11 (tri-SUMO2) (tri-SUMO2) is on record as “did not result in an increase in affinity”. Also, the “affinity for mono-SUMOs” value in assay [4] is reported as “very weak”.
